Tests used:
Test in all cases: cell-based or functional assay
[1] = molecular target: HIV-1 Env of pseudovirus CNE20 (HIV-1)
[2] = molecular target: HIV-1 Env of pseudovirus SC422661.8 (HIV-1)
[3] = molecular target: HIV-1 Env of pseudovirus 0260.v5.c36 (HIV-1)
[4] = molecular target: HIV-1 Env of pseudovirus BJOX025000.01.1 (HIV-1)
[5] = molecular target: HIV-1 Env of pseudovirus Ce0393_C3 (HIV-1)
[6] = molecular target: HIV-1 Env of pseudovirus 6041.v3.c23 (HIV-1)
[7] = molecular target: HIV-1 Env of pseudovirus CNE30 (HIV-1)
[8] = molecular target: HIV-1 Env of pseudovirus Ce1086_B2 (HIV-1)
[9] = molecular target: HIV-1 Env of pseudovirus ZM109F.PB4 (HIV-1)
[10] = molecular target: HIV-1 Env of pseudovirus X1632_S2_B10 (HIV-1)
[11] = molecular target: HIV-1 Env of pseudovirus 3817.v2.c59 (HIV-1)
[12] = molecular target: HIV-1 Env of pseudovirus ZM197M.PB7 (HIV-1)
[13] = molecular target: HIV-1 Env of pseudovirus ZM214M.PL15 (HIV-1)
[14] = molecular target: HIV-1 Env of pseudovirus 6540.v4.c1 (HIV-1)
[15] = molecular target: HIV-1 Env of pseudovirus Ce1176_A3 (HIV-1)
[16] = molecular target: HIV-1 Env of pseudovirus CNE58 (HIV-1)
[17] = molecular target: HIV-1 Env of pseudovirus 1054_07_TC4_1499 (HIV-1)
[18] = molecular target: HIV-1 Env of pseudovirus 62357_14_D3_4589 (HIV-1)
[19] = molecular target: HIV-1 Env of pseudovirus 231965.c01 (HIV-1)
[20] = molecular target: HIV-1 Env of pseudovirus X2131_C1_B5 (HIV-1)
[21] = molecular target: HIV-1 Env of pseudovirus CNE5 (HIV-1)
[22] = molecular target: HIV-1 Env of pseudovirus SC05_8C11_2344 (HIV-1)
[23] = molecular target: HIV-1 Env of pseudovirus 6480.v4.c25 (HIV-1)
[24] = molecular target: HIV-1 Env of pseudovirus 235-47 (HIV-1)
[25] = molecular target: HIV-1 Env of pseudovirus Ce0682_E4 (HIV-1)
[26] = molecular target: HIV-1 Env of pseudovirus ZM233M.PB6 (HIV-1)
[27] = molecular target: HIV-1 Env of pseudovirus A07412M1.vrc12 (HIV-1)
[28] = molecular target: HIV-1 Env of pseudovirus HIV-16055-2.3 (HIV-1)
[29] = molecular target: HIV-1 Env of pseudovirus 6952.v1.c20 (HIV-1)
[30] = molecular target: HIV-1 Env of pseudovirus C3347.c11 (HIV-1)
[31] = molecular target: HIV-1 Env of pseudovirus X2088_c9 (HIV-1)
[32] = molecular target: HIV-1 Env of pseudovirus X1254_c3 (HIV-1)
[33] = molecular target: HIV-1 Env of pseudovirus BJOX028000.10.3 (HIV-1)
[34] = molecular target: HIV-1 Env of pseudovirus Du172.17 (HIV-1)
[35] = molecular target: HIV-1 Env of pseudovirus ZM53M.PB12 (HIV-1)
[36] = molecular target: HIV-1 Env of pseudovirus Ce704809221_1B3 (HIV-1)

## PGT145 (antibody)
[1]
  IC50: 0.318 µg/mL
  IC80: 6.97 µg/mL
[2]
  IC50: 0.024 µg/mL
  IC80: 0.082 µg/mL
[3]
  IC50: > 50 µg/mL
  IC80: > 50 µg/mL
[4]
  IC50, titer in TZM.bl cells: 6.63 µg/mL
  IC80, titer in TZM.bl cells: > 50 µg/mL
[5]
  IC50: 0.112 µg/mL
  IC80: 1.23 µg/mL
[6]
  IC50, titer in TZM.bl cells: 0.964 µg/mL
  IC80, titer in TZM.bl cells: > 50 µg/mL
[7]
  IC50: > 50 µg/mL
  IC80: > 50 µg/mL
[8]
  IC50: > 50 µg/mL
  IC80: > 50 µg/mL
[9]
  IC50: 0.042 µg/mL
  IC80: 0.234 µg/mL
[10]
  IC50, titer in TZM.bl cells: 0.012 µg/mL
  IC80, titer in TZM.bl cells: 2.03 µg/mL
[11]
  IC50, titer in TZM.bl cells: > 50000 ng/mL
  IC80, titer in TZM.bl cells: > 50 µg/mL
[12]
  IC50: 0.628 µg/mL
  IC80: 5.24 µg/mL
[13]
  IC50: > 50 µg/mL
  IC80: > 50 µg/mL
[14]
  IC50, titer in TZM.bl cells: 0.08 µg/mL
  IC80, titer in TZM.bl cells: 5.09 µg/mL
[15]
  IC50: > 50000 ng/mL
  IC80: > 50 µg/mL
[16]
  IC50: 0.183 µg/mL
  IC80: 7.41 µg/mL
[17]
  IC50: > 50 µg/mL
  IC80: > 50 µg/mL
[18]
  IC50: > 50 µg/mL
  IC80: > 50 µg/mL
[19]
  IC50, titer in TZM.bl cells: 0.403 µg/mL
  IC80, titer in TZM.bl cells: 15 µg/mL
[20]
  IC50, titer in TZM.bl cells: 0.018 µg/mL
  IC80, titer in TZM.bl cells: 0.065 µg/mL
[21]
  IC50, titer in TZM.bl cells: 1 ng/mL
  IC80, titer in TZM.bl cells: 0.013 µg/mL
[22]
  IC50: 0.093 µg/mL
  IC80: 0.248 µg/mL
[23]
  IC50, titer in TZM.bl cells: > 50000 ng/mL
  IC80, titer in TZM.bl cells: > 50 µg/mL
[24]
  IC50, titer in TZM.bl cells: 3.21 µg/mL
  IC80, titer in TZM.bl cells: 36 µg/mL
[25]
  IC50: 33.6 µg/mL
  IC80: > 50 µg/mL
[26]
  IC50: 0.025 µg/mL
  IC80: 0.68 µg/mL
[27]
  IC50, titer in TZM.bl cells: 2 ng/mL
  IC80, titer in TZM.bl cells: 0.023 µg/mL
[28]
  IC50: 3 ng/mL
  IC80: 0.051 µg/mL
[29]
  IC50, titer in TZM.bl cells: 3.12 µg/mL
  IC80, titer in TZM.bl cells: > 50 µg/mL
[30]
  IC50, titer in TZM.bl cells: 5 ng/mL
  IC80, titer in TZM.bl cells: 0.044 µg/mL
[31]
  IC50, titer in TZM.bl cells: > 50 µg/mL
  IC80, titer in TZM.bl cells: > 50 µg/mL
[32]
  IC50, titer in TZM.bl cells: 5.6 µg/mL
  IC80, titer in TZM.bl cells: > 50 µg/mL
[33]
  IC50, titer in TZM.bl cells: > 50 µg/mL
  IC80, titer in TZM.bl cells: > 50 µg/mL
[34]
  IC50: > 50 µg/mL
  IC80: > 50 µg/mL
[35]
  IC50: 0.367 µg/mL
  IC80: 11.8 µg/mL
[36]
  IC50: 0.102 µg/mL
  IC80: 0.71 µg/mL

## PGT128 (antibody)
[1]
  IC50: 0.001 µg/mL
  IC80: 0.004 µg/mL
[2]
  IC50: 1.08 µg/mL
  IC80: 18.4 µg/mL
[3]
  IC50: 0.058 µg/mL
  IC80: 0.162 µg/mL
[4]
  IC50, titer in TZM.bl cells: > 50 µg/mL
  IC80, titer in TZM.bl cells: > 50 µg/mL
[5]
  IC50: > 50 µg/mL
  IC80: > 50 µg/mL
[6]
  IC50, titer in TZM.bl cells: > 50 µg/mL
  IC80, titer in TZM.bl cells: > 50 µg/mL
[7]
  IC50: 2.06 µg/mL
  IC80: 12.6 µg/mL
[8]
  IC50: > 50 µg/mL
  IC80: > 50 µg/mL
[9]
  IC50: > 50 µg/mL
  IC80: > 50 µg/mL
[10]
  IC50, titer in TZM.bl cells: > 50 µg/mL
  IC80, titer in TZM.bl cells: > 50 µg/mL
[11]
  IC50, titer in TZM.bl cells: 3 ng/mL
  IC80, titer in TZM.bl cells: 0.023 µg/mL
[12]
  IC50: > 50 µg/mL
  IC80: > 50 µg/mL
[13]
  IC50: 1.5 µg/mL
  IC80: 29.4 µg/mL
[14]
  IC50, titer in TZM.bl cells: 11.8 µg/mL
  IC80, titer in TZM.bl cells: > 50 µg/mL
[15]
  IC50: 9 ng/mL
  IC80: 0.026 µg/mL
[16]
  IC50: 13.8 µg/mL
  IC80: > 50 µg/mL
[17]
  IC50: 0.035 µg/mL
  IC80: 0.312 µg/mL
[18]
  IC50: 1.14 µg/mL
  IC80: > 50 µg/mL
[19]
  IC50, titer in TZM.bl cells: > 50 µg/mL
  IC80, titer in TZM.bl cells: > 50 µg/mL
[20]
  IC50, titer in TZM.bl cells: > 50 µg/mL
  IC80, titer in TZM.bl cells: > 50 µg/mL
[21]
  IC50, titer in TZM.bl cells: 18 ng/mL
  IC80, titer in TZM.bl cells: 0.253 µg/mL
[22]
  IC50: 0.017 µg/mL
  IC80: 0.041 µg/mL
[23]
  IC50, titer in TZM.bl cells: 3 ng/mL
  IC80, titer in TZM.bl cells: 0.019 µg/mL
[24]
  IC50, titer in TZM.bl cells: > 50 µg/mL
  IC80, titer in TZM.bl cells: > 50 µg/mL
[25]
  IC50: > 50 µg/mL
  IC80: > 50 µg/mL
[26]
  IC50: > 50 µg/mL
  IC80: > 50 µg/mL
[27]
  IC50, titer in TZM.bl cells: > 50000 ng/mL
  IC80, titer in TZM.bl cells: > 50 µg/mL
[28]
  IC50: > 50000 ng/mL
  IC80: > 50 µg/mL
[29]
  IC50, titer in TZM.bl cells: > 50 µg/mL
  IC80, titer in TZM.bl cells: > 50 µg/mL
[30]
  IC50, titer in TZM.bl cells: 1 ng/mL
  IC80, titer in TZM.bl cells: 0.007 µg/mL
[31]
  IC50, titer in TZM.bl cells: > 50 µg/mL
  IC80, titer in TZM.bl cells: > 50 µg/mL
[32]
  IC50, titer in TZM.bl cells: > 50 µg/mL
  IC80, titer in TZM.bl cells: > 50 µg/mL
[33]
  IC50, titer in TZM.bl cells: 0.024 µg/mL
  IC80, titer in TZM.bl cells: 0.07 µg/mL
[34]
  IC50: 0.028 µg/mL
  IC80: 0.08 µg/mL
[35]
  IC50: > 50 µg/mL
  IC80: > 50 µg/mL
[36]
  IC50: 0.026 µg/mL
  IC80: 0.072 µg/mL

From patent US20230002480A1
